Experimental data published in publication doi:10.1101/2023.09.01.555900 (bioRxiv, 2023).

Target: Rho factor (E. coli transcription termination factor Rho) (E. coli, UniProt P0AG30 1-419)
Test: SEC

Sequence of Rho factor (E. coli transcription termination factor Rho) (P0AG30 whole entry): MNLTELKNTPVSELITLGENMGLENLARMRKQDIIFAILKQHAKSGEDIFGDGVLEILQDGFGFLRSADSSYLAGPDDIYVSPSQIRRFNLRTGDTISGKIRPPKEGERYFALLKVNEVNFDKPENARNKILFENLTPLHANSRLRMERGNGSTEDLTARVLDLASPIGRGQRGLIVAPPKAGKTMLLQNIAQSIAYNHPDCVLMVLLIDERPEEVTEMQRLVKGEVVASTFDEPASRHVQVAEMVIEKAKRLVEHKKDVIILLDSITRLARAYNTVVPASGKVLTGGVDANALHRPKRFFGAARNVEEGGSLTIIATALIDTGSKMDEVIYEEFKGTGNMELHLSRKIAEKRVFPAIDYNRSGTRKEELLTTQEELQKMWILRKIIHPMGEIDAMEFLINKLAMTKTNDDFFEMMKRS

- binding result: binds
B1: Rof (Rho-off, also called YaeO) (natural protein, E. coli)
chain: MNDTYQPINCDDYDNLELACQHHLMLTLELKDGEKLQAKASDLVSRKNVEYLVVEAAGETRELRLDKITSFSHPEIGTVVVSES
